Assay results taken from patent publication US12383631 (BRIGHT PEAK THERAPEUTICS, dated 2025).

T1: IL-18 receptor (IL-18Rα/IL-18Rβ) on cells (HEK-Blue IL18R reporter cells, NK-92, KG-1) (human, UniProt Q13478 19-541; O95256 20-599)
T1 sequence (looked up) 1: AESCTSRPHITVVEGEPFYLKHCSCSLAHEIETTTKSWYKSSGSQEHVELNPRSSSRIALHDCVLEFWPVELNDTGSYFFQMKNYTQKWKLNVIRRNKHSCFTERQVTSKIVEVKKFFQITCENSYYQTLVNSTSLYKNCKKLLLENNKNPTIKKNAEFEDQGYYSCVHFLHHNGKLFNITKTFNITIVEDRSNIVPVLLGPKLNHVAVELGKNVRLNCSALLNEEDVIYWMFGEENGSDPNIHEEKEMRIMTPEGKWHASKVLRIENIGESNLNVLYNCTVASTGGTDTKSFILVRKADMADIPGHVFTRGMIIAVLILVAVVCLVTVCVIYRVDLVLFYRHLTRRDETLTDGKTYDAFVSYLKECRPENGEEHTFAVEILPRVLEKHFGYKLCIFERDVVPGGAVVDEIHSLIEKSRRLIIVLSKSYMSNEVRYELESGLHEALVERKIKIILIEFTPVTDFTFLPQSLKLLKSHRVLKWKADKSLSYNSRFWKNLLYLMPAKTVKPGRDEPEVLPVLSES
T1 sequence (looked up) 2: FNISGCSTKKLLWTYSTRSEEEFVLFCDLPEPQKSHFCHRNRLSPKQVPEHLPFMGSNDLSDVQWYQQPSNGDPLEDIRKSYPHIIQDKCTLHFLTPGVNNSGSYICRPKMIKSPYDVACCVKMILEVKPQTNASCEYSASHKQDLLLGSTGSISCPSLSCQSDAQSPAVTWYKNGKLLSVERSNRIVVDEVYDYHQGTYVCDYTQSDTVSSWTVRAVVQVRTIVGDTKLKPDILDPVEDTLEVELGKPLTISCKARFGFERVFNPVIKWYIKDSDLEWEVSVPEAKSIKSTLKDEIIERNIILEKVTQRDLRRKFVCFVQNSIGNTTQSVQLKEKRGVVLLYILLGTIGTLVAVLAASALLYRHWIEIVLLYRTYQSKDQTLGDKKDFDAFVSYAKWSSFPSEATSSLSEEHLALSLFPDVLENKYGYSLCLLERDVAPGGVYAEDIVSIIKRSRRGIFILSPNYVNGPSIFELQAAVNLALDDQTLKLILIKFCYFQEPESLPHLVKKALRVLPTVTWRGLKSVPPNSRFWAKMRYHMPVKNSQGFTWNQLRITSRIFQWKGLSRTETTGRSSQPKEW

B1: IL-18 polypeptide of SEQ ID NO: 30 (E6K, V11I, C38A, K53A, T63A, C76A, C127A) (ligand)
chain: YFGKLKSKLSIIRNLNDQVLFIDQGNRPLFEDMTDSDARDNAPRTIFIISMYADSQPRGMAVAISVKCEKISTLSAENKIISFKEMNPPDNIKDTKSDIIFFQRSVPGHDNKMQFESSSYEGYFLAAEKERDLFKLILKKEDELGDRSIMFTVQNED
notes: also called C086
B2: human IL-18BP-His (other)
chain: TPVSQTTTAATASVRSTKDPCPSQPPVFPAAKQCPALEVTWPEVEVPLNGTLSLSCVACSRFPNFSILYWLGNGSFIEHLPGRLWEGSTSRERGSTGTQLCKALVLEQLTPALHSTNFSCVLVDPEQVVQRHVVLAQLWAGLRATLPPTQEALPSSHSSPQQQG
notes: also called His-tagged human IL-18BP; not shown: His tag

Assays:
[1] = biological target: T1, IL-18 receptor (IL-18Rα/IL-18Rβ) on …; experiment: cell-based or functional assay
[2] = biological target: T1, IL-18 receptor (IL-18Rα/IL-18Rβ) on …; experiment: cell-based or functional assay; remark: listed apart in the source
human IL-18BP-His = biological target: B2; experiment: AlphaLISA of free IL-18BP after incubation with IL-18BP-His
Procedure: (§1) Under subdued light, 12.5 µl of pre-mixed Donor beads were added, followed by a short centrifugation step at 150 g, and incubated for 30 minutes at 20° C. under shaking at 750 rpm with no light. AlphaLisa signal was then measured on an Enspire plate reader (Perkin Elmer) using 680 and 615 nm as excitation and emission wavelengths respectively.

[3] = biological target: T1, IL-18 receptor (IL-18Rα/IL-18Rβ) on …; experiment: cell-based or functional assay; remark: listed apart in the source
[4] = biological target: T2, Composition B (Atezolizumab/Tecentriq conjugated to IL-18 polypeptide of SEQ ID NO: 30) (human, UniProt P0DOX5 2-449 = IgG part; P0DOX7 1-214; Q14116 37-193, chemical linker to the antibody; site not stated for this composition; chemical linker to IL-18; site not stated for this composition); experiment: AlphaLISA of free IL-18BP after incubation with IL-18BP-His
T2 construct: immunocytokine
Procedure: as §1

EC50, IFNγ secretion, NK92 cells [1] | EC50, IFNγ secretion, PD-1 positive KG-1 cells [2] | EC50, IFNγ secretion, parental KG-1 cells [2] | Kd (human IL-18BP-His) | EC50, HEK-Blue IL18R reporter cells [3] | Kd [4] | Binder
2 pM | 8 pM | 12 pM | 24600 pM | 0.034 pM |  | B1
 |  |  |  |  | 6380 pM | B2
